This is an account of results in US12240882B2, “Fusion proteins comprising an engineered knottin peptide and uses thereof” (The Board of Trustees of the Leland Stanford Junior …, priority 2010, dated 2025).

“Also recorded” adds a separate entry of the source.

Data set [1] addresses T1, αvβ3 integrin (Homo sapiens, UniProt P05106+P06756). Description: Yeast display binding to αvβ3 integrin in presence of saturating Gas6. The settings on record: 100 or 200 nM αvβ3 integrin with 100 nM Gas6.
In data set [2] the target is T1, αvβ3 integrin. Description: Yeast display binding of EETI 2.5D-Axl fusion to soluble αvβ3 integrin. The settings on record: 20, 50 or 100 nM αvβ3 integrin.
The conditions of data set [3]: circular dichroism. In general terms: CD spectra are sensitive to the conformation of chiral molecules.
Data set [4] deals with T2, Gas6 (Homo sapiens, UniProt Q14393).
T2 sequence (Q14393 31-678): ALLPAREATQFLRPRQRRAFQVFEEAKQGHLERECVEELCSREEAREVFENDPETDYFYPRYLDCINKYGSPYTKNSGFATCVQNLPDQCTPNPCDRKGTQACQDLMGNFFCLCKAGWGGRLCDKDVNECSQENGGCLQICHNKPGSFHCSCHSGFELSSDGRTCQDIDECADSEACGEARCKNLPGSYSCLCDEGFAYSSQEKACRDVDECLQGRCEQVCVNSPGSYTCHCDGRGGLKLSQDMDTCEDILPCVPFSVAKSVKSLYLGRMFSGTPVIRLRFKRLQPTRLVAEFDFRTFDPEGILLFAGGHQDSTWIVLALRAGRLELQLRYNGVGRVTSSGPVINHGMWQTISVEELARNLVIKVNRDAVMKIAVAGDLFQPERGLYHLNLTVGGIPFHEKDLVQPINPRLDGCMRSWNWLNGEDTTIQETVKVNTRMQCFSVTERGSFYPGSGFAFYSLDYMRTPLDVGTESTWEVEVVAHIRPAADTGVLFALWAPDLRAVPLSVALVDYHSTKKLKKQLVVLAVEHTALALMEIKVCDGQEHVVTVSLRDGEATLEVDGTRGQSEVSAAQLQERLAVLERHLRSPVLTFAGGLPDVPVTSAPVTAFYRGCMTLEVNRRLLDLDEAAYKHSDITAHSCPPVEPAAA
Description: Yeast display binding to Gas6 in presence of saturating αvβ3 integrin. To be noted: 20 or 100 nM Gas6 with 200 nM αvβ3 integrin.

Data set [5] addresses T2, Gas6. Description: Yeast display binding of EETI 2.5D-Axl fusion to Gas6.
Data set [6] has as its target T1, αvβ3 integrin. Description: Binding of soluble EETI 2.5D-Axl to K562-αvβ3 cells (flow cytometry). To be noted: soluble protein from Pichia pastoris. On the technique in general: A flow cytometer gives signals particle by particle.
For data set [7], the target named is T1, αvβ3 integrin. Description: cRGD competition of EETI 2.5D-Axl binding to K562-αvβ3 cells.
Another data set relates to PC3 cells. Description: Inhibition of PC3 cell adhesion to vitronectin by knottin-Fc proteins. The data set is classed as cell-based. To be noted: knottin-Fc fusions, FIG. 10. The method, then: Negative control is an irrelevant protein.
In another tumor model, the ability of the knottin-Fc proteins to inhibit PC3 cell adhesion to the extracellular matrix (ECM) protein vitronectin was analyzed. […] As the inhibition of integrin-ECM adhesion induces caspase-mediated apoptosis, this biological mechanism will be explored in future studies.

Data set [8] in a line: Gel filtration chromatography of knottin-Fc. Type of data set: physicochemical. Background: SEC sorts molecules by how far they enter the pores of the column.
Another data set has as its system sk0v3 cells. Description: Binding of knottin-Fc proteins to sk0v3 cells. The settings on record: measured against wild-type EETII-Fc. The protocol:
The binding of the knottin-Fc proteins to tumor cell lines were then measured.

T1 sequence (P06756 31-889 limits assumed): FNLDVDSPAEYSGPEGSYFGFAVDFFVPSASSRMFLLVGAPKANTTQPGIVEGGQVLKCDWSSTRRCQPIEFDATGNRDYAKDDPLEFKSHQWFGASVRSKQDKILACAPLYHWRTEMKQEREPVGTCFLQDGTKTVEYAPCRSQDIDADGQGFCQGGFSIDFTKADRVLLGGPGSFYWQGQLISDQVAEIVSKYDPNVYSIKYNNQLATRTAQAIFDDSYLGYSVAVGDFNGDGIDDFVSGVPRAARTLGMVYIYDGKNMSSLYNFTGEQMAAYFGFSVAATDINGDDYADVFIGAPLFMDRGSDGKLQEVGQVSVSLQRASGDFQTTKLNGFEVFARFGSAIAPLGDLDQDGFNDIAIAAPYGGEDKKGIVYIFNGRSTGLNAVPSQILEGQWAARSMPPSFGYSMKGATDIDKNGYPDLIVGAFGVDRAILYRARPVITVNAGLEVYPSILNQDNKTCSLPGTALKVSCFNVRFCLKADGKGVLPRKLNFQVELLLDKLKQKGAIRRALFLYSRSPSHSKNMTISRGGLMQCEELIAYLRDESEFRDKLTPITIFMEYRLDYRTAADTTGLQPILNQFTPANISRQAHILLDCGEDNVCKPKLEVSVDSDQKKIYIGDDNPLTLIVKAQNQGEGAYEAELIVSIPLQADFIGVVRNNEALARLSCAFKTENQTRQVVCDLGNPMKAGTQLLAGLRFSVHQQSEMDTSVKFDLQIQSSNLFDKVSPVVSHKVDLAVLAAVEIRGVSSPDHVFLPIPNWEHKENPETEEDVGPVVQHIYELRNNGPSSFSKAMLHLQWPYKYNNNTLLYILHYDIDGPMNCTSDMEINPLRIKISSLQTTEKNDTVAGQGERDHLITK
T1 sequence (P06756 891-1048 partner limits assumed): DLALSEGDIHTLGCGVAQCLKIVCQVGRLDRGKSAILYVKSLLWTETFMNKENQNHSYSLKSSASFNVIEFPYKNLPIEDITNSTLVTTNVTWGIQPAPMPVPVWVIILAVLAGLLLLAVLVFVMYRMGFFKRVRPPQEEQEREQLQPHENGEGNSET
T1 sequence (P05106 27-788): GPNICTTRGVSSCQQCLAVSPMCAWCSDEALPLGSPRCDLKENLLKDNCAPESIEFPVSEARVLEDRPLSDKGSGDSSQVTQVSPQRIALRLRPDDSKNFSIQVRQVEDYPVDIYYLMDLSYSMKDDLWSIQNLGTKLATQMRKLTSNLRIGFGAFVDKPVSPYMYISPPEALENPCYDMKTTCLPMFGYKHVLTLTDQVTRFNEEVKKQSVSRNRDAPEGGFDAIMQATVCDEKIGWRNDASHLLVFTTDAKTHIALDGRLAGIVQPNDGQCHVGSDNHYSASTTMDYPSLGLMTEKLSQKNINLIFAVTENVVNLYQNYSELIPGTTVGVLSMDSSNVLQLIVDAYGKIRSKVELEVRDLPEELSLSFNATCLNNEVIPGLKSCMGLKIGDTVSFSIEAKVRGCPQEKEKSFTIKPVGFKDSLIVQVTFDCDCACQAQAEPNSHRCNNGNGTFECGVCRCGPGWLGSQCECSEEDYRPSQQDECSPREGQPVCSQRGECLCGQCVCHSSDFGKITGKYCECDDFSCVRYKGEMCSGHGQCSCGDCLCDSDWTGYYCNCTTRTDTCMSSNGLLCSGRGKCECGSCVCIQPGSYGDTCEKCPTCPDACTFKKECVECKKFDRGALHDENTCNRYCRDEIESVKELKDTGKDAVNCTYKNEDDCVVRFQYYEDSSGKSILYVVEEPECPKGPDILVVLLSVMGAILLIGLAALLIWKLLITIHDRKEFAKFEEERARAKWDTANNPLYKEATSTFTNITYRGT

B1: EETI 2.5D-Axl: EETI 2.5D directly fused to N-terminus of wt Axl Ig1 (amino acids 21-132), SEQ ID NO: 84 (protein)
chain: GCPQGRGDWAPTSCSQDSDCLAGCVCGPNGFCGSRGTQAEESPFVGNPGNITGARGLTGTLRCQLQVQGEPPEVHWLRDGQILELADSTQTQVPLGEDEQDDWIVVSQLRITSLQLSDTGQYQCLVFLGHQTFVSQPGYVGLEGLP
As for B1, the “binding to αvβ3 integrin in presence of saturating Gas6” value in the data set with αvβ3 integrin [1] is “not affected; also recorded: is not lost”; in the data set with αvβ3 integrin [1] (listed as 2.5D-Axl), “the same as when they were measured individually”. In addition, the “binding to soluble αvβ3 integrin” value with αvβ3 integrin [2] is on record as “levels comparable to the mono-specific proteins; also recorded: affinities similar to its corresponding mono-specific components”; with αvβ3 integrin [2] (listed as 2.5D-Axl) it was “matched that of 2.5D”. Besides, the “Tm (° C.)” value in data set [3] worked out at 52 ± 0.7 °C. The “melting temperature (Tm)” value in data set [3] is around 52 °C. For the same molecule, the “binding to Gas6 in presence of saturating αvβ3 integrin” value with Gas6 [4] is listed as “not affected; also recorded: maintains affinity to Gas6”; in the data set with Gas6 [4] (listed as 2.5D-Axl), “the same as when they were measured individually”. For the same molecule, the “binding to Gas6” value with Gas6 [5] (0.2, 2 or 20 nM Gas6) is “levels comparable to the mono-specific proteins; also recorded: affinities similar to its corresponding mono-specific components”; in the data set with Gas6 [5] (0.2, 2 or 20 nM Gas6, listed as 2.5D-Axl) it was “maintained wild-type Axl's affinity”. Also, in the data set with αvβ3 integrin [6], the “equilibrium binding to cells transfected to overexpress αvβ3 integrin” value is listed as “consistent with that previously determined for 2.5D”. In addition, the “binding of EETI 2.5D-Axl to K562-αvβ3 cells with molar excess of cRGD” value with αvβ3 integrin [7] was “binding specifically to αvβ3 integrin”.

B2: 2.5D-Fc: EETI-based knottin 2.5D fused to Fc domain of mouse Ig2a (protein)
chain: GCPQGRGDWAPTSCKQDSDCRAGCVCGPNGFCGEPRGPTIKPCPPCKCPAPNLLGGPSVFIFPPKIKDVLMISLSPIVTCVVVDVSEDDPDVQISWFVNNVEVHTAQTQTHREDYNSTLRVVSALPIQHQDWMSGKEFKCKVNNKDLPAPIERTISKPKGSVRAPQVYVLPPPEEEMTKKQVTLTCMVTDFMPEDIYVEWTNNGKTELNYKNTEPVLDSDGSYFMYSKLRVEKKNWVERNSYSCSVVHEGLHNHHTTKSFSRTPGK
With B2, in the data set with PC3 cells, the “inhibition of PC3 cell adhesion to vitronectin” value is reported as “low nanomolar range”. The tendency to aggregate entry in data set [8] is “no tendency to aggregate”.

B3: 2.5F-Fc: EETI-based knottin 2.5F fused to Fc domain of mouse Ig2a (protein)
chain: GCPRPRGDNPPLTCKQDSDCLAGCVCGPNGFCGEPRGPTIKPCPPCKCPAPNLLGGPSVFIFPPKIKDVLMISLSPIVTCVVVDVSEDDPDVQISWFVNNVEVHTAQTQTHREDYNSTLRVVSALPIQHQDWMSGKEFKCKVNNKDLPAPIERTISKPKGSVRAPQVYVLPPPEEEMTKKQVTLTCMVTDFMPEDIYVEWTNNGKTELNYKNTEPVLDSDGSYFMYSKLRVEKKNWVERNSYSCSVVHEGLHNHHTTKSFSRTPGK
Regarding B3, the “affinity to sk0v3 cells” value with sk0v3 cells is “greater affinity”. The “inhibition of PC3 cell adhesion to vitronectin” value with PC3 cells is “low nanomolar range”.
